Residue numbers refer to the chain shown, from its start. Entries after “also recorded” stand apart in the source; their conditions may differ.
Columns and labels:
[1] = target: T1, human big-ET-1 (SEQ ID NO:434) (Homo sapiens, UniProt P05305); assay: Surface plasmon resonance (Biacore) binding, mAb capture format, 37° C.; conditions: for ka / kd: analyte human big-ET-1, mAb capture
T1 sequence (P05305 53-90 limits assumed): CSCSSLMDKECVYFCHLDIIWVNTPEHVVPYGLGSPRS
Method: (§1) Measurements were conducted on a T200 Biacore instrument (Biacore Life Sciences division of GE Healthcare, Piscataway, N.J.). […] Different concentrations of small-ET-1 (SEQ ID NO:435), human big-ET-1 (SEQ ID NO:434) or mouse big-ET-1 (SEQ ID NO:437) were injected over the anti-big-ET-1 captured surfaces at a flow rate of 100 μl/min. Peptide binding was monitored for 3 min while dissociation of mAb-bound peptide was monitored for 4 min in HBST running buffer (0.01 M HEPES pH 7.4, 0.15 M NaCl, 3 mM EDTA, 0.005% v/v Surfactant P20). Kinetic association (ka) and dissociation (kd) rate constants were determined by processing and fitting the data to a 1:1 binding model using Scrubber 2.0 curve fitting software.

[2] = target: T2, mouse big-ET-1 (SEQ ID NO:437) (Mus musculus, UniProt P22387); assay: as above
T2 sequence (P22387 53-91 limits assumed): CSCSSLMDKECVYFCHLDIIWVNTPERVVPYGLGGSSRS
Method: as §1

[3] = tested on: C57BL/6 mice challenged with human big-ET-1 peptide; assay: Mean arterial pressure changes after human big-ET-1 challenge in catheterized mice; type: in vivo, mouse
Method: The purpose of this Example was to evaluate the ability of an exemplary anti-big-ET-1 antibody (H2M6490N) to block […] increases in arterial pressure. Mice that had been previously infused with either blocking anti-big-ET-1 antibody or isotype control were challenged with big-ET-1 peptide. Changes in arterial pressure stemming from either big-ET-1 endogenous conversion to small-ET-1, or having its conversion blocked by circulating anti-big-ET-1 antibody, were measured. To facilitate real time measurements of arterial pressure during these experiments, mice were catheterized using standard protocols.
Briefly, naïve Taconic C57BL/6 mice (8-10 weeks of age) were anesthetized with isoflurane and the skin overlying the carotid artery and jugular vein was cut. Both the right jugular vein and left carotid artery were isolated, taking care not to damage the Vagus nerve or other blood vessels. Using standard techniques, the jugular vein was retracted and a 32-gauge needle (bent at a 90° angle) was used to puncture the vein for insertion of a saline-filled jugular vein catheter. The left carotid artery was then isolated and a Millar Micro-Tip® catheter was introduced using standard protocols. During all procedures a temperature probe was used to monitor animal body temperature, which was kept around 36.5° C. using a Gaymar heated water circulating pad. The above procedures allowed real-time pressure measurements (systolic pressure, diastolic pressure, mean arterial pressure, and body temperature) to be recorded during all big ET-1 challenge experiments.
In the first study, 150 μg (˜2 mg/kg; 1×10^−9 Moles) of H2M6490N or isotype control mAb was injected i.v. using the jugular vein port followed by a bolus of saline to flush the catheter. This caused a slight and transient drop in pressure that returned to baseline and established the T=0 for the experiment.
In a second experiment, the same experimental protocol was utilized except that H2M6490N (˜2 mg/kg; 1×10^−9 Moles) was injected subcutaneously (s.c.) into the mice 24 hrs before challenge with human big-ET-1 peptide.

[4] = target: T1, human big-ET-1 (SEQ ID NO:434); assay: MALDI-TOF detection of C-term peptide product from cleavage of big-ET-1 by mouse ECE-1; type: biochemical; set-up: purchased R&D Systems (mouse ECE-1 only)
From the text: Matrix Assisted Laser Desorption Ionization Time of Flight (MALDI-TOF) mass spectrometry was used to determine if selected anti-big-ET-1 antibodies could block the conversion of human big-ET-1 (SEQ ID NO:434) or mouse big-ET-1 (SEQ ID NO:437) into its respective peptides in the presence of mouse endothelin converting enzyme 1 (ECE-1). Human big-ET-1 is specifically cleaved by mECE-1 at Trp-21/Val-22 forming both biologically active small-ET-1 (SEQ ID NO:435; MH^+ 2474) and a non-active C-term product (amino acids 22-38 of SEQ ID NO:434; MH^+ 1809). Mouse big-ET-1 is cleaved at Trp-21/VaI-22 into small-ET-1 (SEQ ID NO:435; MH^+ 2474) and its non-active C-term product (amino acids 22-39 of SEQ ID NO:437; MH^+ 1875). The appearance or absence of these masses, in the presence of antibody, can be monitored by MALDI-TOF. In the example below, the presence or absence of the C-term products served as an indicator for big-ET-1 cleavage since these peptides ionize more efficiently than small-ET-1 (SEQ ID NO:435; MH^+ 2474), thereby yielding a more sensitive readout.
Briefly, human or mouse big-ET-1 (0.5 μM) was mixed with antibody (2.5 μM), in phosphate buffered saline (PBS), at a 1:5 molar ratio (big-ET-1:mAb). After a 1-hr incubation (25° C.), mouse ECE-1 (R&D Systems) was added at 40 nM and the solution was placed at 37° C. Aliquots for mass spectrometry analysis were taken at 0, 15, 30 and 60 minutes. Each aliquot was desalted via C18 Ziptip (Millipore) and analyzed in reflextron-positive mode using a Bruker Ultraflextreme MALDI-TOF instrument (Bruker Daltonics).

[5] = analyte mouse big-ET-1, mAb capture

B1: H4H6330P: anti-big-ET-1 antibody, human IgG4 Fc; HCVR/LCVR SEQ ID NO: 210/218 (antibody, V domains shown)
VH: EVQLVESGGGLVQPGGSLRLSCAASGFTFSNYAMSWVRQAPGKGLEWVSAVSGSGVGTYYADSVKGRFTISRDNSKNTLYLQMKSLSAEDTALYYCTKTLGGTHAFDIWGQGTMVTVSS
VL: DIQMTQSPSTLSASVGDRVTITCRASQSISRWLAWYQQKPGKAPKLLIYKASSLESGVPSRFSGSGSGTEFTVTINSLQPDDFATYYCQQYNSYSSFGQGTKLEIK
modifications: human IgG4 Fc
- ka [1]: 1.42e+06 M/s
- kd [1]: 0.0324 s⁻¹
- ka [2, 5]: 1.5e+06 M/s
- kd [2, 5]: 0.072 s⁻¹

B2: H4H6345P: anti-big-ET-1 antibody, human IgG4 Fc; HCVR/LCVR SEQ ID NO: 354/362 (antibody, V domains shown)
VH: EVQLVESGGGLVQPGGSLRLSCAASGFIFSSYAMTWVRQAPGKGLEWVSAISGSGVSTYYADSVKGRFTISRDNSKNTLYLQMNSLRIEDTAVYYCGKARTGTHAFDIWGQGTMVTVSS
VL: B1 VL with S56T, V73L, N76S, A84G, Q99P, L103V, E104D
modifications: human IgG4 Fc
- ka [1]: 663000 M/s
- kd [1]: 0.058 s⁻¹
- ka [2, 5]: 1.5e+06 M/s
- kd [2, 5]: 0.0974 s⁻¹

B3: H2M6490N: anti-big-ET-1 antibody, mouse IgG2 Fc; HCVR/LCVR SEQ ID NO: 18/26 (antibody, V domains shown)
VH: EVQLLESGGGLVQPGGSLRLSCAASGFTFSSYAMTWVRQAPGKGLECISAISGSGYSTYYADSMKGRFSISRDNSKNTLYLQMNRLRAEDTAVYYCTKGGRILEWLLPFDFWGQGTLVTVSS
VL: DVVMTQSPLSLPVTLGQPASISCRSSQSLVYSDGNTYLIWFQQRPGQSPRRLIYKVSNRDSGVPDRFSGSGSGTDFTLIISRVEAEDVGLYYCMQGTHWPPTFGGGTKVEIK
modifications: mouse IgG2 Fc
- binding to human big-ET-1 (in words) [1]: high affinity binding
- ka [1]: 209000 M/s
- kd [1]: 0.00399 s⁻¹
- binding to mouse big-ET-1 (in words) [2]: did not show any binding
- Kd ([2]; analyte mouse big-ET-1, mAb capture, KD=kd/ka): > 1000 nM
- Mean Pressure Change ([3]; Study 1: antibody 150 μg i.v., time 0 min, cumulative big-ET-1 0.00E+00 Moles): 0 mmHg
- Mean Pressure Change ([3]; Study 1: antibody i.v., time 30 min, cumulative big-ET-1 3.85E−11 Moles, mAb:big-ET-1 26.0): −0.6 ± 2.6 mmHg
- Mean Pressure Change ([3]; Study 1: antibody i.v., time 45 min, cumulative big-ET-1 1.16E−10 Moles, mAb:big-ET-1 8.7): −1.0 ± 3.5 mmHg
- Mean Pressure Change ([3]; Study 1: antibody i.v., time 60 min, cumulative big-ET-1 2.32E−10 Moles, mAb:big-ET-1 4.3): 4.0 ± 4.7 mmHg
- Mean Pressure Change ([3]; Study 1: antibody i.v., time 75 min, cumulative big-ET-1 4.66E−10 Moles, mAb:big-ET-1 2.1): 18.2 ± 9.6 mmHg
- Mean Pressure Change ([3]; Study 1: antibody i.v., time 90 min, cumulative big-ET-1 8.16E−10 Moles, mAb:big-ET-1 1.2): 32.5 ± 20.8 mmHg
- Mean Pressure Change ([3]; Study 1: antibody i.v., time 105 min, cumulative big-ET-1 1.28E−09 Moles, mAb:big-ET-1 0.8): 25.1 ± 8.3 mmHg
- Mean Pressure Change ([3]; Study 1: antibody i.v., time 120 min, cumulative big-ET-1 1.87E−09 Moles, mAb:big-ET-1 0.5): −15.4 ± 8.2 mmHg
- Mean Pressure Change ([3]; Study 2: antibody s.c. ~24 hr before challenge, time 0 min, cumulative big-ET-1 0.00E+00 Moles): 0 mmHg
- Mean Pressure Change ([3]; Study 2: antibody s.c. ~24 hr before, time 30 min, cumulative big-ET-1 3.85E−11 Moles, ratio 26.0): 1.7 mmHg
- Mean Pressure Change ([3]; Study 2: antibody s.c. ~24 hr before, time 45 min, cumulative big-ET-1 1.16E−10 Moles, ratio 8.7): 7.6 mmHg
- Mean Pressure Change ([3]; Study 2: antibody s.c. ~24 hr before, time 60 min, cumulative big-ET-1 2.32E−10 Moles, ratio 4.3): 14.9 mmHg
- Mean Pressure Change ([3]; Study 2: antibody s.c. ~24 hr before, time 75 min, cumulative big-ET-1 4.66E−10 Moles, ratio 2.1): 52.1 mmHg
- Mean Pressure Change ([3]; Study 2: antibody s.c. ~24 hr before, time 90 min, cumulative big-ET-1 8.16E−10 Moles, ratio 1.2): 45.8 mmHg
- Mean Pressure Change ([3]; Study 2: antibody s.c. ~24 hr before, time 105 min, cumulative big-ET-1 1.28E−09 Moles, ratio 0.8): 12.0 mmHg
- arterial pressure response to human big-ET-1 challenge (in words) ([3]; ~2 mg/kg antibody, 30 min (i.v.) or 24 hr (s.c.) before challenge): maintained baseline mean arterial pressure until the amount of human big-ET-1 peptide approached the molar equivalent of antibody on board; also recorded: maintained normal arterial pressures longer than those mice that were treated with isotype control antibody; also recorded: effective in inhibiting endothelin-1-mediated elevation in arterial pressure in vivo
- cleavage of human big-ET-1 by mouse ECE-1 (in words) [4]: no C-term product was detected
- Detection of C-term Peptide Product, 0 min ([4]; Human big-ET-1, mouse ECE-1, 0 min): −
- Detection of C-term Peptide Product, 15 min ([4]; Human big-ET-1, mouse ECE-1, 15 min): −
- Detection of C-term Peptide Product, 30 min ([4]; Human big-ET-1, mouse ECE-1, 30 min): −
- Detection of C-term Peptide Product, 60 min ([4]; Human big-ET-1, mouse ECE-1, 60 min): −

B4: H4H6353P: anti-big-ET-1 antibody, human IgG4 Fc; HCVR/LCVR SEQ ID NO: 386/394 (antibody, V domains shown)
VH: EVQLVESGGGLVKPGGSLRLSCAASGFSFNYAWMSWVRQAPGKGLEWIGRIKSKINGGTTDYTAPVKGRFTISRDDSKNTLYLQMNSLKTEDTAVYYCRGDEDFWGQGTLVTVSS
VL: B3 VL with N35F, I39N, Q42R, I79R, L90I, P101Y, G105Q, V109L
modifications: human IgG4 Fc
- ka [1]: 1.14e+06 M/s
- kd [1]: 0.00116 s⁻¹
- ka [2, 5]: 2900 M/s
- kd [2, 5]: 0.00236 s⁻¹
